According to patent publication US20240240160A1, “NOVEL OLIVETOL SYNTHASES FOR C[…]” (priority 2021, published 2024):

T1: OLS from C. sativa (Cannabis sativa, UniProt B1Q2B6)
T1 construct: made in house
T1 sequence (B1Q2B6 1-385): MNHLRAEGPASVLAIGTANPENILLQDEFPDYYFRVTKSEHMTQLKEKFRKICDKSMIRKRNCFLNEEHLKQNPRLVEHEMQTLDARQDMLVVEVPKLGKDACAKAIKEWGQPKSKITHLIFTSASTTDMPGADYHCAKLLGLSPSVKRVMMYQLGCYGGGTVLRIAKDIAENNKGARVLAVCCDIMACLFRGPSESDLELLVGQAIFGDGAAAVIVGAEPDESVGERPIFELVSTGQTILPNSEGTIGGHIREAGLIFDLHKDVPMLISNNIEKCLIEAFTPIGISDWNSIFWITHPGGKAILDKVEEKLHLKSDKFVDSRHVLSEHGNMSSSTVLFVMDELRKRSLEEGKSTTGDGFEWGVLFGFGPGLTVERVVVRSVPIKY

B1: AIM58716.1: Type-III PKS enzyme from Cymbidium hybrid cultivar (protein)
chain: MPSLESVKKSNRADGFASILAIGRANPENFIEQSTYPDFFFRVTNSEHLVNLKKKFQRICDKTAIRKRHFVWNEELLNANPCLGTFMDNSLNVRQEFAIREIPKLGAEAATKAIQEWGQPKSRITHLIFCTTSGMDLPGADYQLTQILGLNPNIERVMLYQQGCFAGGTTLRLAKCLAESRKGARVLVVCAETTAVLFRAPSEEHQDDLVTQALFADGASALIVGADPDETAHERASFVIVSTSQVLLPDSAGAIGGHVSEGGLIATLHRDVPQIVSKNVGKCLEEAFTPLGISDWNSIFWVPHPGGRAILDQVEERVGLKPEKLIVSRHVLAEYGNMSSVCVHFALDEMRKRSKKEGKATTGEGLDWGVLFGFGPGLTVETVVLHSVPI
modifications: Cymbidium hybrid cultivar; (1)..(390) AIM58716.1
B2: AAZ32094.1: Type-III PKS enzyme from Oncidium hybrid cultivar (protein)
chain: MPSLESVKNAKRAEGFASILAIGRANPEHFIEQSSYPDFFFRVTNSEHLVALKKKFQRICDKTAIRKRHFAWNEELLTTNSCFQTFMGNSLNVRQEFAIREIPKLGAQAANKAIQEWGQPKSRITHLIFCTTSGMDLPGADYQLTEILGLNPNVERVMLYQQGCFAGGTTLRLAKCLAESRKGARVLVVCAETTTVLFRAPSEEHQDDLVTQALFADGASALIVGADPDEAAHERASFIIVSTSQVLLPDSAGAIGGHVSEGGLLATLHRDVPQIVSKNVGKCLEEAFTPLGISDWNSIFWVPHPGGRAILDQIEERVGLKPEKLFISRHVLAEYGNMSSVCVHFALDEMRKRSAKEGKATTGEGLDWGVLFGFGPGLTVETVVLHSVPVTN
modifications: Oncidium hybrid cultivar; (1)..(392) AAZ32094.1
B3: QCO76957.1: Type-III PKS enzyme from Dendrobium officinale (protein)
chain: MPSLESIRKAPRANGFASILAIGRANPENFIEQSTYPDFFFRITNSEHLVDLKKKFQRICDKTAIRKRHFVWNEEFITTNPCLHTFMDKSLDVRQEVAIREIPKLGAKAAAKAIQEWGQPKSRITHLIFCTTSGMDLPGADYQLTQILGLNPNVERVMLYQQGCFAGGTTLRLAKCLAESRKGARVLVVCAETTTVLFRGPSEEHQEDLVTQALFADGASALIVGADPDEAAHERASFVIVSTSQVLLPDSAGAIGGHVSEGGLLATLHRDVPKIVSKNVEKCLEEAFTPFGITDWNSIFWVPHPGGRAILDLVEERVGLKPEKLLVSRHVLAEYGNMSSVCVHFALDEMRKRSAIEGKATTGEGLEWGVVFGFGPGLTVETVVLRSVPL
modifications: Dendrobium officinale; (1)..(390) QCO76957.1

Tests used:
[1] = system: AAZ32094.1 from Oncidium hybrid cultivar (SEQ ID NO:2); assay: Product inhibition assay with butyryl-CoA and malonyl-CoA; type: biochemical
Method: (§1) Assays were performed in a total volume of 50 μL in 100 mM Tris, pH 7.5 buffer containing 100 μM malonyl-CoA; 100 µM hexanoyl-CoA; a malonyl-CoA regenerating system comprising malonyl-CoA synthetase, excess malonate, and ATP; and excess purified olivetolic acid cyclase (OAC). The major product in this assay was olivetolic acid (OLA), and the triketide pentyl diacetic acid lactone (PDAL) was a side product. N-His-tagged purified enzymes were assayed under these assay conditions at enzyme concentrations and reaction times suitable for initial rate measurements of product formation. Reactions were initiated by addition of the PKS, then incubated for 30 min. Subsequently, 10 μL of reaction solution was removed and quenched into 15 volumes of 75% acetonitrile containing 0.1% formic acid and internal standards, then centrifuged to pellet denatured protein. Supernatants were transferred to fresh plates for LC-MS analysis of OLA, olivetol (OL), and PDAL as described in the Method section above.
(§2) Assays were performed as described in Example 3 with the following exception: instead of hexanoyl-CoA (C6), butyryl-CoA (C4) was used as substrate along with malonyl-CoA, in order to evaluate the inhibitory effect of the products with hexanoyl-CoA (i.e., OLA, OL and PDAL) on the activity of the enzymes. Accordingly, the products in this assay were the tetraketides divarinic acid (DVA) and divarinol (DVL) and the triketide propyl diacetic acid lactone (propyl-DAL) (see FIG. 4). The rates to form these products were measured in the presence of various concentrations of OLA, OL, and PDAL.

[2] = system: QDX46968.1 from Anoectochilus roxburghii (SEQ ID NO:6); assay: as above; type: biochemical
Method: as §1, §2

OLS from C. sativa = target: T1, OLS from C. sativa; assay: as above; type: biochemical; conditions: for amount of DVA+DVL formed by the enzyme: at 1 mM of the added product, butyryl-CoA substrate; for enzyme activity: at 2 mM of the added product
Method: as §1, §2

[3] = system: E. coli derivative strain which overexpressed an acyl-CoA synthetase (fadD) gene and expressed an olivetolic acid cyclase (OAC) from Cannabis sativa; assay: OL, OLA and PDAL production in E. coli from plasmid-expressed Type-III PKS genes; type: cell-based; conditions: gene on plasmid; for Total: OL + OLA + PDAL; for OL / OLA / PDAL: constitutive promoter, culture spiked with 4 mM hexanoic acid
Method: (§3) To test olivetolic acid production in E. coli, strains comprising a putative OLS gene and an OAC gene from C. sativa were inoculated in multi-well plates containing LB supplemented with 1% glucose and appropriate concentrations of antibiotics. After 6 hours of cultivation at 32° C., the cells were transferred with a 10% inoculum to a P-limited seed medium (see Table 2) and cultivated for ˜18 hours at 32° ° C. to reach an OD of 2.0-4.0. The cultures were transferred with a 20% inoculum in a P-minimal medium (see Table 3) supplemented with 2% glucose and appropriate concentrations of antibiotics. After 3 hours of cultivation at 32° C., the culture was spiked with 4 mM hexanoic acid (˜OD 1.5-2.0). The resulting cultures were then harvested at either 3 hours or 21 hours post hexanoic acid spike; a final OD was taken. 300 μL of butyl acetate containing 500 mg/L undecanoic acid was added to each multi-well plate. The plates were then vortexed for 30 minutes at 1500 rpm and centrifuged for 10 minutes at 4500 rpm. 50 μL of organic layer was transferred to a 96-well plate and derivatized with 50 μL of N,O-Bis(trimethylsilyl)trifluoroacetamide (BSTFA). The plate was then incubated at room temperature for 2 hours to allow for complete derivatization. The samples were then run on GC-FID for analytical quantification of olivetolic acid (OLA), olivetol (OL), PDAL, and hexanoic acid.
(§4) Olivetol, PDAL, OLA, HTAL, CBGA and combinations thereof were analyzed by LCMS or LCMS/MS methods using C18 reversed phase chromatography coupled to either EXACTIVE™ (ThermoFisher) or QTRAP® 4500 (Sciex) mass spectrometers.
(§5) For reversed phase LCMS, compounds were identified by their LC retention times and MRM transitions specific to the compounds. LCMS/MS analysis was conducted on a Shimadzu UHPLC system coupled with AB Sciex QTRAP 4500 mass spectrometer. Agilent Eclipse XDB C18 column (4.6×3.0 mm, 1.8 μm) was used with a 1-min gradient elution at 1 mL/min using water containing 0.1% ammonia acetate as mobile phase A and 90% methanol containing 0.1% ammonia acetate as mobile phase B. The LC column temperature was maintained at 45° C. Negative ionization mode was used for all the analytes.
The genes for 20 Type-III PKS enzymes were codon optimized for E. coli and cloned under control of a constitutive promoter into an expression vector (p15a replicon, carbenicillin resistance marker). The 20 plasmids were transformed into an E. coli derivative strain which overexpressed an acyl-CoA synthetase (fadD) gene and expressed an olivetolic acid cyclase (OAC) from Cannabis sativa.
(§6) The in vivo assay procedure and analytical methods were performed as described above.

[4] = system: E. coli derivative strain which overexpressed an acyl-CoA synthetase (fadD) gene and expressed an olivetolic acid cyclase (OAC) from Cannabis sativa; assay: OL, OLA and PDAL production in E. coli from genome-integrated Type-III PKS genes; type: cell-based; conditions: for Total: OL + OLA + PDAL; for OL / OLA / PDAL: constitutive promoter, 4 mM hexanoic acid
Method: as §3, §4, §5
Three of the type-III PKS genes from Example 1 were integrated under control of a constitutive promoter into an E. coli derivative strain which overexpressed an acyl-CoA synthetase (fadD) gene and expressed an olivetolic acid cyclase (OAC) from Cannabis sativa.
as §6

[5] = system: hexanoyl-CoA and malonyl-CoA; assay: Specific activity assay of purified type-III polyketide synthases (OLA formation in presence of OAC); type: biochemical; conditions: hexanoyl-CoA and malonyl-CoA in the presence of OAC; FIG. 3
Method: In this Example, the specific activities of three previously uncharacterized type-III polyketide synthases (PKS) to form olivetolic acid from hexanoyl-CoA and malonyl-CoA in the presence of olivetolic acid cyclase (OAC) were determined and compared to the olivetol synthase (OLS) from C. sativa.
as §1

[6] = at 1 mM OLA, butyryl-CoA substrate
[7] = increasing concentrations of the added product

Molecule | effect on formation of the tetraketide products (DVL+DVA) [1, 7] | effect on the triketide product propyl-DAL [1, 7] | effect on formation of the tetraketide products (DVL+DVA) [2, 7] | effect on the triketide product propyl-DAL [2, 7] | amount of DVA+DVL formed by the enzyme (OLS from C. sativa) [µM] | enzyme activity (OLS from C. sativa) | Total [3] [µM] | OL [3] [µM] | OLA [3] [µM] | PDAL [3] [µM] | products produced by strains with chromosomally expressed enzyme [4] | Total [4] [µM] | OL [4] [µM] | OLA [4] [µM] | PDAL [4] [µM] | levels of OLA relative to the E. coli strain with OLS from C. sativa [3] | other results
CCCCCc1cc(O)cc(O)c1C(=O)O [OLA, olivetolic acid] | not inhibited, but rather stimulated | inhibited | not inhibited, but rather stimulated | inhibited | 1.5 | almost completely inactive |  |  |  |  |  |  |  |  |  |  | amount of DVA+DVL formed [1, 6]: about 9 μM; amount of the triketide propyl-DAL [1, 6]: 3 to 5 µM; amount of DVA+DVL formed [2, 6]: about 9 μM; amount of the triketide propyl-DAL [2, 6]: 3 to 5 µM
CCCCCc1cc(O)cc(=O)o1 [PDAL, pentyl diacetic acid lactone] |  |  |  |  |  |  |  |  |  |  |  |  |  |  |  |  | effect on activity of the enzyme [1, 7]: not inhibited; effect on activity of the enzyme [2, 7]: not inhibited; inhibition of the activity of OLS from C. sativa (OLS from C. sativa; [7]): inhibitory, but to a somewhat lesser extent
CCCCCc1cc(O)cc(O)c1 [OL, olivetol] | not inhibited | decreased | not inhibited | decreased | 2 | almost completely inactive |  |  |  |  |  |  |  |  |  |  | 
B1 |  |  |  |  |  |  | 1045 | 427 | 436 | 181 | produced olivetol (OL), olivetolic acid (OLA) and pentyl diacetic acid lactone (PDAL) | 927 | 249 | 472 | 206 |  | 
B2 |  |  |  |  |  |  | 1781 | 672 | 751 | 358 | produced olivetol (OL), olivetolic acid (OLA) and pentyl diacetic acid lactone (PDAL) | 1038 | 355 | 534 | 149 | over two-fold | specific activity to form olivetolic acid compared with OLS from C. sativa [5]: higher specific activities
B3 |  |  |  |  |  |  | 2095 | 579 | 754 | 761 | produced olivetol (OL), olivetolic acid (OLA) and pentyl diacetic acid lactone (PDAL) | 483 | 178 | 223 | 82 | over two-fold | 
